Where a chain is given by its changes, count along the chain named. Where two headings read alike, the source gives them in different places.

In test [1] the target is T1, CYSLTR2 N-terminal disordered region, MERKFMSLQPSISVSEMEPNGTFSNNNSRNCTIENFKREFFP (biotin (position not given)).
T1 construct: also called CysLT2; CysLT2r
T1 peptide: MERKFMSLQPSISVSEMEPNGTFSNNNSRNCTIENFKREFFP
Nature of the test: modified sandwich ELISA, fluorescence grade (key: 50000 < x < 100000, Weak binding). (In an ELISA, binding on a coated surface is turned into a signal by an enzyme label.)

Test [2] deals with T2, CD74 disordered region peptide (CLIP), PPKPVSKMRMATPLLMQALPMGALP (biotin (position not given)).
T2 peptide: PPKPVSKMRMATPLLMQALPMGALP
Nature of the test: modified sandwich ELISA, fluorescence grade (key: >400000, Strong binding).

The target in test [3] is T3, KAAG1 disordered region peptide, PGAAAAHLPRWPPPQLAASRREA (biotin (position not given)).
T3 peptide: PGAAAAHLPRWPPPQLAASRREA
Nature of the test: modified sandwich ELISA (scaffold coated, biotinylated peptide, streptavidin-HRP fluorescence).

Test [4] deals with T1, CYSLTR2 N-terminal disordered region, …. Described as above.
The target is the same in test [5]. Nature of the test: modified sandwich ELISA (FIGS. 30A and 30B). Here is the method:
(§1) Binder proteins were coated on the surface of a high binding capacity 96 well plate by incubating 100 μL of protein at […] in a coating solution (10 mM Tris pH 8.8, 50 mM NaCl), overnight at 4 C. The next morning, the coating solution was aspirated out and wells were washed once with 300 μL ELISA wash buffer (lx PBS, 0.05% Tween-20) and solution was aspirated out. The wells were blocked with 200 μL of a blocking buffer (1×PBS, 0.05% Tween-20, 3% BSA) at room temperature for 1 hour. After one hour, the blocking solution was aspirated out and 100 μL of biotinylated polypeptide in a binding buffer (1×PBS, 0.05% Tween-20, 0.5% BSA) at various concentrations was added to the appropriate well and incubated for 20 minutes. Peptide solution was aspirated out after 20 minutes and wells were washed 5 times with 300 μL of ELISA wash buffer. To detect the biotinylated peptide, 100 μL of streptavidin-HRP (50 ng/mL) was added to each well and incubated for 1 hour. The wells were subsequently washed 5 times with 300 μL of ELISA wash buffer. 100 μL of QuantaBlu Fluorogenic Peroxidase substrate solution was added to each well, incubated for 30 minutes and reaction stopped by adding 100 μL of stop solution. Fluorescent signal from each well was measured using a Biotek Cytation5 plate reader by exciting the fluorophore at […] and measuring emission at 420 nm. […]

For another test, the target named is T4, MERKFMSLQPSISVSEMEPNG (N-terminal biotin).
T4 construct: First of three overlapping 21-mers of the CYSLTR2 N-terminal disordered region
T4 peptide: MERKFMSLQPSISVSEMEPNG
Nature of the test: ELISA, scaffold coated on the plate, biotinylated peptide titrated, streptavidin-HRP fluorescence. Here is the method:
(§2) Binder proteins were coated on the surface of a high binding capacity 96 well plate by incubating 100 μL of protein at […] in a coating solution (10 mM Tris pH 8.8, 50 mM NaCl), overnight at 4 C. The next morning, the coating solution was aspirated out and wells were washed once with 300 μL ELISA wash buffer (lx PBS, 0.05% Tween-20) and solution was aspirated out. The wells were blocked with 200 μL of a blocking buffer (1×PBS, 0.05% Tween-20, 3% BSA) at room temperature for 1 hour. After one hour, the blocking solution was aspirated out and 100 μL of biotinylated polypeptide in a binding buffer (1×PBS, 0.05% Tween-20, 0.5% BSA) at various concentrations was added to the appropriate well and incubated for 20 minutes. Peptide solution was aspirated out after 20 minutes and wells were washed 5 times with 300 μL of ELISA wash buffer. To detect the biotinylated peptide, 100 μL of streptavidin-HRP (50 ng/mL) was added to each well and incubated for 1 hour. The wells were subsequently washed 5 times with 300 μL of ELISA wash buffer. 100 μL of QuantaBlu Fluorogenic Peroxidase substrate solution was added to each well, incubated for 30 minutes and reaction stopped by adding 100 μL of stop solution. Fluorescent signal from each well was measured using a Biotek Cytation5 plate reader by exciting the fluorophore at […] and measuring emission at 420 nm. Fluorescent signals were plotted as a function of polypeptide concentration.

For test [6], the target named is T5, CYSLTR2 Epitope SISVSEMEPNGTFSNNNSRNC (N-terminally biotinylated).
T5 peptide: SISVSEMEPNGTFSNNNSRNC
The description is as above. Here is the method: as §2

In test [7] the target is T3, KAAG1 disordered region peptide, …. The description is as above. As for the experimental part: as §2
Test [8] concerns the target T2, CD74 disordered region peptide (CLIP), …. The test is described as above. Here is the method:
as §2

Test [9] has as its target T6, Urotensin-2 receptor (UR-II-R) disordered region, MALTPESPSSFPGLAATGSSVPEPPGGPNATLNSSWASPTEPSSLEDLVATGTI (biotin (position not given)).
T6 construct: also called Urotensin II R; GPCR2 (Urotensin II)
T6 peptide: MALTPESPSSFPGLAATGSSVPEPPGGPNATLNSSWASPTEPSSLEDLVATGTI
The description is as above. Here is the method:
as §1

Test [10] addresses T1, CYSLTR2 N-terminal disordered region, …. The experiment in a line: ELISA fluorescence at 10,000 nM peptide divided by the no-scaffold control; the control bar is marked 1x. As for the experimental part:
as §2

Test [11] deals with T6, Urotensin-2 receptor (UR-II-R) …. The experiment in a line: modified sandwich ELISA (scaffold coated, biotinylated peptide, streptavidin-HRP fluorescence).
The target in test [12] is T5, CYSLTR2 Epitope SISVSEMEPNGTFSNNNSRNC
Nature of the test: ELISA, scaffold coated on the plate, biotinylated peptide titrated, streptavidin-HRP fluorescence.

For test [13], the target named is 25 amino acid epitope of CLIP (CD74). The experiment in a line: BLI (Octet), biotinylated peptide on streptavidin tip, scaffold in solution. In general terms: Biolayer interferometry detects binding as a change in optical thickness at a sensor tip.
The target in test [14] is T7, CD40LG Epitope NKEETKKENSFEMQKGDQNPQIAAH (biotin (position not given)).
T7 peptide: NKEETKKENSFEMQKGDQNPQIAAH
Nature of the test: ELISA, scaffold coated on the plate, biotinylated peptide titrated, streptavidin-HRP fluorescence. Here is the method:
as §2

Test [15] has as its target T8, KCNA6 Epitope QQQEQQPASGGGGQNGQQAMS (biotin (position not given)).
T8 peptide: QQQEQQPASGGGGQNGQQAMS
Described as above. As for the experimental part: as §2

For test [16], the target named is T9, GMERKFMSLQPSISVSEMEPNGTFSNNNSRNCTIENFKREFFP (biotinylated, position not given).
T9 peptide: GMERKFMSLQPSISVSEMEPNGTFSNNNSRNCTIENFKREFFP
The description is as above. As for the experimental part: as §2

The target of test [17] is T10, TNFRSF13B disordered region peptide, LPPELRRQRSGEVENNSDNSGRYQ (biotin (position not given)).
T10 peptide: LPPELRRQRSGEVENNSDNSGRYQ
The test is described as above. As for the experimental part:
as §2

The target of test [18] is T3, KAAG1 disordered region peptide, …. The experiment in a line: modified sandwich ELISA (scaffold coated, biotinylated peptide, streptavidin-HRP fluorescence).
Test [19] has the same target. The experiment in a line: modified sandwich ELISA, fluorescence grade (key: 50000 < x < 100000, Weak binding).

B1: S078 (designed binder)
chain: GDTRPRFLWQLKFECHFFNGTERVRLLERCIYNQEESVRFDSDVGEYRAVTELGRPDAEYWNSQKDLLEQRRAAVDTYCRHNYGVGESFTVQRRSGGGIKEEHVIIQAEFYLNPDQSGEFMFDFDGDEIFHVDMAKKETVWRLEEFGRFASFEAQGALANIAVDKANLEIMTKRSNYTGGSHHHHHHLE
On to B1, for which the fluorescent signal was 50000 to 100000 fluorescentsignal in test [1] and > 400000 fluorescentsignal in test [2]. The binding result in test [3] is “no binding (tested: <5000 (fluorescence signal, key))”.

B2: S084 (designed binder)
chain: IKEEHVIQQSEYYTNPDQSGEFQFDFDGDEIFHVDMAKKETVWRLEEFGRFASFEAQGALANIAVDKANLEIMTKRSNYTGDTRPRFNWQLKFECHFFNGTERVRLLERCNYNQEESVRFDSDVGEYRAVTELGRPDAEYWNSQKDLLEQRRAAVDTYCRHNYGVGESFTVQRRGGSHHHHHHLE
In the case of B2, the fluorescent signal in test [2] was > 400000 fluorescentsignal. Besides, the binding result in [3] is given as “no binding (tested: <5000 (fluorescence signal, key))”; in [4] it was “no binding (tested: <5000 (fluorescence signal, key))”.

B3: S090 (designed binder)
chain: IKEEHSIRQNEMYLNPDQSGLFEFHLDGQPIFRVDMQKKRTKWQLEEFGRFASFEAQGALANIAVDKANLEIMTKRSNQSEAGSHSWQLIFVCEFHEGTESVRLSERCYYNQELSVSFNSDVGEYRAVTELGRPDAEYWNSQKDLLEQRRAAVDTYCRHNYGVGESFTVQRRGGSHHHHHHLE
notes: Rationally designed from v1.1 (S005); By SEC it is a mixture of monomers, dimers and multimers, at least 50% monomer; also called v1.2; scaffold v1.2
In general, EC50 (read off the curve) refers to the midpoint of the concentration-response curve. In the case of B3, the “fold higher affinity compared to a non-specific protein binder” value in test [5] was > 65 fold. In addition, the binding result with MERKFMSLQPSISVSEMEPNG is “no binding (tested: 10000 nM)”; in [6] it was “binds”; in test [7] it was “binds”; in test [9], “binds”. In addition, the “EC50 (read off the curve)” value in [8] is ~500 nM. In addition, the “Relative Binding” value in test [10] stood at 37.2 x. Further, the “Relative Binding (Fold Change)” value in test [10] was found to be 37.2 x.

B4: S005 (designed binder)
chain: MIKEEHVIIQAEFYLNPDQSGEFMFDFDGDEIFHVDMAKKETVWRLEEFGRFASFEAQGALANIAVDKANLEIMTKRSNYTPMGDTRPRFLWQLKFECHFFNGTERVRLLERCIYNQEESVRFDSDVGEYRAVTELGRPDAEYWNSQKDLLEQRRAAVDTYCRHNYGVGESFTVQGGSHHHHHHLE
notes: Engineered scaffold derived from MHC II; derived from S007 by removing the immunoglobulin unit; also called v1.1; scaffold v1.1
What is called Kd is the concentration at which binding is half-saturated. As to B4, the binding result is recorded as “no binding (tested: <5000 (fluorescence signal, key))” in test [11]; “binds” in test [12]; “binds” in [7]. Further, the “EC50 (read off the curve)” value in [8] is ~300 nM. In addition, the affinity in test [13], expressed as Kd, was 840 nM. For the same molecule, the “Relative Binding” value in test [10] worked out at 18.5 x. Moreover, the “Relative Binding (Fold Change)” value in test [10] came to 18.5 x.

B5: S177 (designed binder)
chain: B4 chain with I9N, F13Y, M24K, N63H, F96Y, L110N, Y143Q, L150H, Y161K
notes: Computationally derived from S005; 21.92 kDa
As to B5, the binding result is recorded as “no binding (tested: 10000 nM)” with MERKFMSLQPSISVSEMEPNG; “no binding (tested: 10000 nM)” in test [14]; “binds” in test [6]; “no binding (tested: 10000 nM)” in [15]; “no binding (tested: 10000 nM)” in test [7]; “binds” in test [16]. Moreover, the binding result in test [17] is on record as “no binding (tested: 10000 nM)”.

B6: S098 (designed binder)
chain: PENYLFQGRQECNGTQFLERYIYNREEFVRFDEFRAVGRPDEEYWNSQKDILEEERAVPDRMCRHNYELGGPMTLQRRVQPRVNIKADHVSTYAAFVQRPFMFEFDEDEMFYVDLHLEEFGQAFSFEAQGGLANIAILNNNLNTRSNHTQATNDPPHHHHHHLE
For B6, the binding result is “no binding (tested: <5000 (fluorescence signal, key))” in test [18] and “no binding (tested: <5000 (fluorescence signal, key))” in test [11].

B7: S055 (designed binder)
chain: GSHSMRYNYTSVSRPGRGEPRFLSEGHVDDTQFVRFDSDAASPREEPRAPWIEQEGPEYWDRNTQIYKAQAQTDRESLRNLRGYYNQSEAGSHTLQSIYGCDVGPDGRLLRGHDQYYYDGKDYISLNEDLRSWTAADTAAQITQRKWEAAREAEQRRAYLEGECVEWLRRYLENGKDKLERADGGSHHHHHHLE
Turning to B7, the fluorescent signal in [19] was 50000 to 100000 fluorescentsignal; in test [2], > 400000 fluorescentsignal.

B8: S056 (designed binder)
chain: B7 chain with D30G, T31Q, Q32P, S92L, T94S, Q96N, G100V, Q115H, K121E, D122L
Take B8: the fluorescent signal in [19] is 50000 to 100000 fluorescentsignal; in test [2] it was > 400000 fluorescentsignal.

Values taken from patent US20260102461A1 (AIKIUM, published 2026).
